Measured values: paper PMC9712106

Key:
[1] = target: biotinylated PTRAMP-CSS heterodimer: PfPTRAMP (42-309) with C-terminal Avitag, with PfCSS (20-290) (Plasmodium falciparum); assay: BLI; biotinylated PfPTRAMP or PTRAMP-CSS immobilised on High Precision Streptavidin (SAX) biosensors; twofold dilution series of anti-PfPTRAMP nanobody; 25 °C; kinetics buffer (PBS pH 7.4, 0.1% BSA, 0.02% Tween-20); 1:1 model; mean of two independent experiments
[2] = target: PfPTRAMP (42-309) with a C-terminal Avitag, biotinylated (Plasmodium falciparum); assay: as above

| Binder | Kd [1] [nM] | koff [1] [s⁻¹] | kon [1] [M⁻¹ s⁻¹] | Kd [2] [nM] | koff [2] [s⁻¹] | kon [2] [M⁻¹ s⁻¹] |
| --- | --- | --- | --- | --- | --- | --- |
| anti-PfPTRAMP nanobody H8 (VHH) VHH: QVQLQESGGGLVQPGGSLRLSCAASGFTFSSYWMYWVRQAPGKGLEWVSAINTGGGSTAYADSVKGRFTISRDNAKNTLYLQMNSLKSDDTAVYYCVKARGSSWSDRVFDYWGQGTQVTVSS | 410 | 0.25 | 790000 | 400 | 0.25 | 620000 |
| anti-PfPTRAMP nanobody H10 (VHH) VHH: QVQLQESGGGLVQPGGSLRLSCAASGFTFDNYWMYWVRQAPGKGLEWVSAINTVGSHTYYADSVKGRFTISRDNAKNTLYLQMNSLKSEDTAVYYCAKGPWGFGTSGWGEMDYWGKGTQVTVSS | 390 | 0.077 | 200000 | 530 | 0.088 | 170000 |
